# Literature values in publication PMC8152036.
# pKd: −log10 of the molar value.
# Experiments:
# Assay in all cases: SPR
# [1] = target: RNase Y (Bacillus subtilis) (UniProt O31774)
# PfkA (Bacillus subtilis) = PfkA (Bacillus subtilis) (UniProt O34529)
# [2] = target: RNase J1 (Bacillus subtilis) (UniProt Q45493)
# Sequence of UniProt Q45493 (Q45493 whole entry): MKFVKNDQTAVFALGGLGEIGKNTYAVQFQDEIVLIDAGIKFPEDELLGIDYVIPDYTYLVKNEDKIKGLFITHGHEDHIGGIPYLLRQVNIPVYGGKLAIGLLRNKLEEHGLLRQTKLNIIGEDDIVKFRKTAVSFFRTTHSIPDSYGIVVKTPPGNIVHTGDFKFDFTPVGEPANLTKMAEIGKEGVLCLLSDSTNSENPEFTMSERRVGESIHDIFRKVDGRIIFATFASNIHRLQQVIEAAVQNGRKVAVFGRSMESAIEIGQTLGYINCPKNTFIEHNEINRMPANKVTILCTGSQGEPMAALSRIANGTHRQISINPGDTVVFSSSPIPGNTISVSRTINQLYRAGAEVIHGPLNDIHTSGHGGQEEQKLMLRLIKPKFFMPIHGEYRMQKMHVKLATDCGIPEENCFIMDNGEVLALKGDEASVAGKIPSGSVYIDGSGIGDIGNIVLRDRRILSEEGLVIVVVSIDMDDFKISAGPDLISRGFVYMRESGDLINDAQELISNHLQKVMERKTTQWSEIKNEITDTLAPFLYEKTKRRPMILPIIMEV
# Sequence of UniProt O31774 (O31774 whole entry): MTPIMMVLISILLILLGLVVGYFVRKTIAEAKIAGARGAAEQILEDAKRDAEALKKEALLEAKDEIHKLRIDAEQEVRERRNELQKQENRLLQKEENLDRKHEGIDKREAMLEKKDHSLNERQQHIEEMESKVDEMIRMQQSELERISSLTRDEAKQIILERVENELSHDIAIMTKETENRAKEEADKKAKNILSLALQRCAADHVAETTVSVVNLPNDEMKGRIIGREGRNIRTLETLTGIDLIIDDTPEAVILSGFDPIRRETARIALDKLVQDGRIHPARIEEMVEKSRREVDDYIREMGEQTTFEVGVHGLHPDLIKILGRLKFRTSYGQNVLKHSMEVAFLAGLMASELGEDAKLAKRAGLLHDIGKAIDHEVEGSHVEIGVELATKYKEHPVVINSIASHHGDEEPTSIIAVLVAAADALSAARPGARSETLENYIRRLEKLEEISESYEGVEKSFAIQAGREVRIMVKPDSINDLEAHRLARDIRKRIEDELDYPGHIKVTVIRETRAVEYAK
# Sequence of UniProt O34529 (O34529 whole entry): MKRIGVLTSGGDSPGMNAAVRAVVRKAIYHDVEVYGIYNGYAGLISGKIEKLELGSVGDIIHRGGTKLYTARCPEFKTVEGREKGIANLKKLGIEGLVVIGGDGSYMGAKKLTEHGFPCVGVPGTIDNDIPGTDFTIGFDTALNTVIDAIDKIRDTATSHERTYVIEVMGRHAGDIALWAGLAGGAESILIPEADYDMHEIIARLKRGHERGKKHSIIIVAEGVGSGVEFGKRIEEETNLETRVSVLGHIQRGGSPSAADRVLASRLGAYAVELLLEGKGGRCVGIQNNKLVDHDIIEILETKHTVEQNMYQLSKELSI
pKd [1],pKd (PfkA (Bacillus subtilis)),pKd [2],Substance
7.00,7.40,,Enolase (from UniProt P37869)
8.30,,6.60,PNPase (from UniProt P50849)
